Where two headings read alike, the source gives them in different places.
Legend:
[1] = target: T1, FL-hcGAS (human cyclic GMP-AMP synthase) (human, UniProt Q8N884 1-522); test: phase separation microscopy
[2] = target: T1, FL-hcGAS (human cyclic GMP-AMP synthase); test: phase separation microscopy; remark: listed apart in the source

T1 sequence (Q8N884 whole entry): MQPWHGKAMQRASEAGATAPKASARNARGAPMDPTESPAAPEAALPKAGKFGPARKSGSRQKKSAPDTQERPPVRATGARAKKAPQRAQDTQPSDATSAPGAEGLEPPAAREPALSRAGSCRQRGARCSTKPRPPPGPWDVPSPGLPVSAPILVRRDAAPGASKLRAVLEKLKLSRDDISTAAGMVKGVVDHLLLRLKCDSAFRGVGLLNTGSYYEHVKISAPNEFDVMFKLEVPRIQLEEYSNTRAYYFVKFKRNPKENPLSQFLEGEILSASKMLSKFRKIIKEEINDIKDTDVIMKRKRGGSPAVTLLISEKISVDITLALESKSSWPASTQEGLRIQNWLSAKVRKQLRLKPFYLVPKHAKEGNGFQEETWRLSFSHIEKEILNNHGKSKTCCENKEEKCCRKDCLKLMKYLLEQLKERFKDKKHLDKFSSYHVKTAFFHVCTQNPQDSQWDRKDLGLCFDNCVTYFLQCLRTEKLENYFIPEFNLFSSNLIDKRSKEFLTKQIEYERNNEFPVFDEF

AGAGAGAGAGAGAGAGAGAGAGAGAGAGAGAGAGAGAGAGAGAGAGAG (ssDNA) [48 nt ssDNA (AG repeat)]
binding result [1]: binds

B1: ISD (interferon stimulatory DNA, 45 bp) (dsDNA)
DNA 1: TACAGATCTACTAGTGATCTATGACTGATCTGTACATGATCTACA
DNA 2: TGTAGATCATGTACAGATCAGTCATAGATCACTAGTAGATCTGTA
binding result [2]: binds

From doi:10.1101/2020.09.27.316166
